For data set [1], the target named is oncolytic virus M1 (OVM) virions. The data set can be described thus: virus binding to cells measured by qRT-PCR. The following applies: 22Rv1 cells expressing TPRA1 variants; parent: est. 1.4; read off a plot. Background: In qPCR the cycle at which signal appears reflects the starting amount.
Data set [2] in a line: GFP-positive 22Rv1 cells by flow cytometry, 48 h. The following applies: glycan lost; control: wild-type TPRA1. A general note: In flow cytometry, cells or beads pass a laser one at a time.
In data set [3] the target is oncolytic virus M1 (OVM) virions (oncolytic virus M1 (Getah-like alphavirus)). The data set can be described thus: BLI; Octet RED96e; OVM loaded on aminopropylsilane (APS) biosensors in PBS; TPRA1-ECD-Fc (0.5-8 µM) or Fc (8 µM) in PBS with 0.02% Tween-20 and 1 mg/mL BSA; 1:1 binding model. On the technique in general: Biolayer interferometry detects binding as a change in optical thickness at a sensor tip.

As to “HA-tagged full-length TPRA1 (from UniProt Q86W33-1) N11Q; N23Q”, the other: Relative change in binding in data set [1] stood at 0.35.

For “TPRA1 (transmembrane protein adipocyte-associated 1): N11/23Q”, the “other: susceptibility of cells to viral infection” value in data set [2] is “decreases”.

For the substance “recombinant extracellular domain of TPRA1 fused to an Fc tag (TPRA1-ECD-Fc) (from UniProt Q86W33-1 1-47) (Fc fusion)”, the Kd in data set [3] was 0.091 µM.

One may read the Kd as the concentration at which binding is half-saturated. Low readings indicate tighter binding, high ones weaker binding.

Source of the values: paper PMC12752648.
